Reference: paper PMC4118869 (PLoS ONE, 2014)

Columns and labels:
[1] = target: hemagglutinin of A/California/07/2009 (H1N1)pdm09, in the influenza virus antigen standard (Influenza A virus A/California/07/2009 …, UniProt C3W5X2, strain); assay: ELISA; conditions: one partner purified
[2] = target: phage displayed HA gene fragment D363-G478 (Influenza A virus A/California/07/2009 …, UniProt C3W5X2); assay: ELISA; conditions: both partners purified
[3] = target: hemagglutinin of A/Anhui/01/2005 (H5N1), in the influenza virus antigen standard (Influenza A virus A/Anhui/1/2005 (H5N1), UniProt Q1WDM0, strain); assay: ELISA; conditions: one partner purified
[4] = target: hemagglutinin of A/HongKong/213/2003 (H5N1), in the influenza virus antigen standard (Influenza A virus A/Hong Kong/213/2003 …, UniProt Q4H2E2, strain); assay: ELISA; conditions: one partner purified
[5] = target: hemagglutinin of A/Indonesia/05/2005 (H5N1), in the influenza virus antigen standard (Influenza A virus A/Indonesia/05/2005 …, UniProt A5A5L7, strain); assay: ELISA; conditions: one partner purified
[6] = target: hemagglutinin of A/Singapore/01/57 (H2N2), in the influenza virus antigen standard (Influenza A virus A/Singapore/1/1957 …, UniProt Q67333, strain); assay: ELISA; conditions: one partner purified
[7] = target: hemagglutinin of A/Brisbane/10/2007 (H3N2), in the influenza virus antigen standard (Influenza A virus A/Brisbane/10/2007 …, UniProt A8W8K8, strain); assay: ELISA; conditions: one partner purified
[8] = target: recombinant H9-HA, A/HongKong/1073/99 (H9N2) (Influenza A virus A/Hong Kong/1073/99 …, UniProt Q9ICY5, strain); assay: SPR; conditions: both partners purified
[9] = target: T1, recombinant H3-HA, A/Brisbane/10/2007 (H3N2) (Influenza A virus A/Brisbane/10/2007 …, UniProt A8W8K8, strain); assay: SPR; data not shown: sdAbs on immobilised recombinant H3-HA and H7-HA; conditions: both partners purified
T1 construct: source: bought: Protein Sciences

[10] = target: T2, recombinant H7-HA, A/Netherlands/219/2003 (H7N7) (Influenza A virus …, UniProt Q6VMK1); assay: as above; conditions: both partners purified
T2 construct: source: bought: Protein Sciences

[11] = target: phage displayed HA gene fragment P66-I282 (Influenza A virus A/California/07/2009 …, UniProt C3W5X2); assay: ELISA; conditions: both partners purified
[12] = target: phage displayed HA gene fragment L193-K225 (Influenza A virus A/California/07/2009 …, UniProt C3W5X2); assay: ELISA; conditions: both partners purified
[13] = target: hemagglutinin of A/HongKong/1073/99 (H9N2), in the influenza virus antigen standard (Influenza A virus A/Hong Kong/1073/99 …, UniProt Q9ICY5, strain); assay: ELISA; conditions: one partner purified
[14] = target: T3, recombinant H2-HA, A/Japan/305/57 (H2N2) (Influenza A virus A/Japan/305/1957 …, UniProt P03451, strain); assay: SPR; conditions: both partners purified
T3 construct: source: bought: E-Enzymes (Protein Sciences in the SPR methods)

[15] = target: recombinant H5-HA, A/Vietnam/1203/2004 (H5N1) (Influenza A virus A/Vietnam/1203/2004 …, UniProt Q5EP31, strain); assay: SPR; conditions: both partners purified
[16] = target: recombinant H1-HA (D18-I530), A/California/06/2009 (H1N1)pdm09 (Influenza A virus A/California/06/2009 …, UniProt C3W5S1, strain); assay: SPR; conditions: both partners purified
[17] = target: T4, recombinant H2-HA, A/Japan/305/57 (H2N2) (Influenza A virus A/Japan/305/1957 …, UniProt P03451, strain); assay: SPR; conditions: both partners purified
T4 construct: source: bought: E-Enzymes (list of antigens) or Protein Sciences (SPR methods)

[18] = target: recombinant H9-HA, A/HongKong/1073/99 (H9N2) (Influenza A virus A/Hong Kong/1073/99 …, UniProt Q9ICY5, strain); assay: SPR; conditions: both partners purified; remark: listed apart in the source
[19] = target: T5, recombinant H7-HA, A/Netherlands/219/2003 (H7N7) (Influenza A virus …, UniProt Q6VMK1); assay: SPR; conditions: both partners purified
T5 construct: source: bought: Protein Sciences

[20] = target: T6, recombinant H1-HA (H1N1)pdm09 hemagglutinin (Influenza A virus (H1N1)pdm09; …, UniProt C3W5S1, strain); assay: SPR; conditions: both partners purified
T6 construct: source: bought: Protein Sciences

[21] = target: recombinant HA1 domain (D18-R344), A/California/06/2009 (H1N1)pdm09 (Influenza A virus A/California/06/2009 …, UniProt C3W5S1, strain); assay: SPR; conditions: both partners purified

Binder | binding result [1] | binding result [2] | binding result [3] | binding result [4] | binding result [5] | binding result [6] | binding result [7] | binding result [8] | binding result [9] | binding result [10] | binding result [11] | binding result [12] | Kd [15] | koff [15] | kon [15] | Kd [16] | koff [16] | kon [16] | also measured
R2b-D8 (VHH, source: E. coli WK6 periplasm, purified (Talon IMAC, Superdex 75 SEC)) VHH: QVQLVESGGGLVQPGGSLRLSCAASGFTFSWYDVGWYRRAPGKERELVADIASTRGTTNYADSVKGRFTISRDNAKNSVYLQMNSLKPEDTAVYYCNTRRDWRDYWGQGIQVTVSS | binds | binds | binds | binds | binds | binds | no binding | no binding | no binding | no binding |  |  |  |  |  |  |  |  | 
R2b-E8 (VHH, source: E. coli WK6 periplasm, purified (Talon IMAC, Superdex 75 SEC)) VHH: QVQLVESGGGLVQPGGSLRLSCAASGSFFSRYRMGWYRQAPGEQRELVAGITYDDSTNYAGSVKGRFTISRDNAKNTVHLQMNSLKPEDTAVYYCNLNPPGNLYWGQGTQVTVSS | binds | no binding | binds | binds | binds |  | no binding |  | no binding | no binding | no binding | no binding | 0.48 nM | 0.000143 s⁻¹ | 299000 M⁻¹ s⁻¹ | 1.74 nM | 0.000628 s⁻¹ | 361000 M⁻¹ s⁻¹ | binding result [13]: binds; binding result [14]: no binding
R1a-A5 (VHH, also called R1a-A5 monovalent; source: E. coli WK6 periplasm, purified (Talon IMAC, Superdex 75 SEC)) VHH: QVQLVESGGGLVQPGGSLRLSCSASGSAVLFSTYPMSWYRQAPGKQRELVAAVTTDGSTSYADYAKGRFTISRDNAKNTVYLQMNSLKPEDTAVYYCNARDGFFNRYDYWGQGTQVTVSS | binds | no binding | binds | binds | binds |  | no binding | no binding | no binding | no binding | no binding | no binding | 0.18 nM |  |  | 1.87 nM |  |  | binding result [14]: no binding
R1a-A5 monovalent (VHH, source: E. coli WK6, periplasmic extract, purified (Talon IMAC, Superdex 75 SEC)) VHH: QVQLVESGGGLVQPGGSLRLSCSASGSAVLFSTYPMSWYRQAPGKQRELVAAVTTDGSTSYADYAKGRFTISRDNAKNTVYLQMNSLKPEDTAVYYCNARDGFFNRYDYWGQGTQVTVSS |  |  |  |  |  |  |  |  |  |  |  |  |  |  |  |  |  |  | binding result [17]: no binding; binding result [18]: no binding; binding result [19]: no binding; Kd [20]: 1.56 nM
R1a-B6 (VHH, also called R1a-B6 monovalent; source: E. coli WK6 periplasm, purified (Talon IMAC, Superdex 75 SEC)) VHH: QVQLVESGGGLVQPGGSLRLSCAASGSFFSRYRMGWYRQAPGEQRELVASIAYDGSTSYADPVKGRFTISRDNANTVHLQMYSLKPDDTAVYYCNLDPPGILYWGQGTQVTVSS | binds | no binding | binds | binds | binds | binds | no binding |  | no binding | no binding | no binding | no binding | 0.52 nM |  |  | 0.86 nM |  |  | Kd [8]: 6.89 nM
R1a-B6 monovalent (VHH, source: E. coli WK6, periplasmic extract, purified (Talon IMAC, Superdex 75 SEC)) VHH: QVQLVESGGGLVQPGGSLRLSCAASGSFFSRYRMGWYRQAPGEQRELVASIAYDGSTSYADPVKGRFTISRDNANTVHLQMYSLKPDDTAVYYCNLDPPGILYWGQGTQVTVSS |  |  |  |  |  |  |  |  |  |  |  |  |  |  |  |  |  |  | Kd [18]: 4.19 nM; binding result [19]: no binding; Kd [20]: 0.36 nM
R2a-G8 (VHH, source: E. coli WK6 periplasm, purified (Talon IMAC, Superdex 75 SEC)) VHH: QLQLAESGGGLVQAGGSLRLSCAASGSTLNNNAIGWFRQAPGKEREGVSCMNSRDGTTNYADSVKGRFTISRDVAKNTVYLQMNSLKPEDTAVYFCAVKGFAPFLIGCPWGKAEYDYWGQGTQVTVSS | binds |  | binds | binds | binds |  | no binding | no binding | no binding | no binding | no binding | no binding | 9.07 nM | 0.00223 s⁻¹ | 252000 M⁻¹ s⁻¹ | 3.55 nM | 0.000798 s⁻¹ | 225000 M⁻¹ s⁻¹ | Kd [14]: 18.5 nM; koff [14]: 0.0142 s⁻¹; kon [14]: 764000 M⁻¹ s⁻¹; Kd [21]: 7.66 nM
R2b-D9 (VHH, source: E. coli WK6 periplasm, purified (Talon IMAC, Superdex 75 SEC)) VHH: QVQLVESGGGLVQPGGSLRLSCLASGSAFSLYTMGWYRQAPGNQRELVAAITSGESTNYADSVKGRFTISRDNAKNTVYLQMNSLKPEDTAVYYCNADPLSTGWGQYSYWGQGTQVTVSS | binds | no binding | binds | binds | binds | binds | no binding |  | no binding | no binding | no binding | no binding | 0.15 nM | 2.08e-05 s⁻¹ | 141000 M⁻¹ s⁻¹ | 0.18 nM | 2.96e-05 s⁻¹ | 167000 M⁻¹ s⁻¹ | Kd [14]: 2.17 nM; koff [14]: 0.000163 s⁻¹; kon [14]: 75400 M⁻¹ s⁻¹; Kd [8]: 128 nM; koff [8]: 0.0528 s⁻¹; kon [8]: 413000 M⁻¹ s⁻¹
